7 molecules from article PMC7954794, “Protein context shapes the specificity of SH3 domain-mediated interactions in vivo” (Nature Communications, 2021) can be followed below.

B1: Pex13 (protein, UniProt P80667 1-386, looked up)
Peroxisomal membrane protein …: MSSTAVPRPKPWETSASLEEPQRNAQSLSAMMTSNQQDSRPTEESNNSNSASESAPEVLPRPAALNSSGTYGESNTIPGIYGNSNYGIPYDNNPYSMNSIYGNSIGRYGYGGSYYGNNYGSFYGGGYGAGAGYGMNNGSGLGESTKATFQLIESLIGAVTGFAQMLESTYMATHNSFFTMISVAEQFGNLKEMLGSFFGIFAIMKFLKKILYRATKGRLGIPPKNFAESEGSKNKLIEDFQKFNDSGTINSNEKATRRKISWKPLLFFLMAVFGFPYLLNKFITKLQTSGTIRASQGNGSEPIDPSKLEFARALYDFVPENPEMEVALKKGDLMAILSKKDPLGRDSDWWKVRTKNGNIGYIPYNYIEIIKRRKKIEHVDDETRTH
B2: Sho1 (protein, UniProt P40073 1-367, looked up)
High osmolarity signaling …: MSISSKIRPTPRKPSRMATDHSFKMKKFYADPFAISSISLAIVSWVIAIGGSISSASTNESFPRFTWWGIVYQFLIICSLMLFYCFDLVDHYRIFITTSIAVAFVYNTNSATNLVYADGPKKAAASAGVILLSIINLIWILYYGGDNASPTNRWIDSFSIKGIRPSPLENSLHRARRRGNRNTTPYQNNVYNDAIRDSGYATQFDGYPQQQPSHTNYVSSTALAGFENTQPNTSEAVNLHLNTLQQRINSASNAKETNDNSNNQTNTNIGNTFDTDFSNGNTETTMGDTLGLYSDIGDDNFIYKAKALYPYDADDDDAYEISFEQNEILQVSDIEGRWWKARRANGETGIIPSNYVQLIDGPEEMHR
B3: Lsb3 (protein)
chain: MGINNPIPRSLKSETKKAAKILASFVKPNQVFGADQVIPPDVLKRAKGLAIITILKAGFLFSGRAGSGVIVARLKDGTWSAPSAIAMAGAGAGGMVGIELTDFVFILNTQDAVKSFSEFGTITLGGNVSVSAGPLGRSAEAAASASAGGVAAVFAYSKSKGLFAGVSVEGSAIIERREANRKFYGDNCTAKMILSGRIRPPPAVDPLFRVLESRAFNYRPSNGGRGSFDDDEDDYYDDDDYYNDIPSSFSSTDASSTRPNTRSTRRRAQSGSRYTFDDDDDDDDYGTGYSRNSRLAPTNSGGSGGKLDDPSGASSYYASHRRSGTAQSRARSSRNRWADDEYDDYDDDYESGYRRGNGRDRTKDREVDDLSNRFSKSRISSASTPQTSQGRFTAPTSPSTSSPKAVALYSFAGEESGDLPFRKGDVITILKKSDSQNDWWTGRVNGREGIFPANYVELV
modifications: left off: DHFR F[3], C-terminal, kept
B4: Sdc25 (protein, UniProt P0CF34 1-1048, looked up)
Putative truncated guanine …: MPITSSPDLFYLNDCDVVYWYDLTRLVCHYVNLTERDLLANEREKFLTSLDLLTAQITYVYMLFRNLRLVEDSFKKTLKKLIYTLSRFSINANIWFHSTLFEEREAIASQKDPERRSPLLQSILGTFQKFHFLLRLLHFLSNPNELTILPQLTPRFFKDSFNTISWNNPFLRKRLNQHMSHDLPRQMIKAVAGASGIVAENIDEIPASKQGTSCSSETSHHSPSAPFQRRRRGTIFSNVSGSSDESDTIWSKRKKPYPLNEETLSLVRARKKQLDGKLKQMIKSANEYLSNTANFSKMLNFEMNFKTYEEVSGTIPIIDILENLDLTIFLNLRELGDENRVFDEDVAIDDEDEEFLKHSLSSLSYILSDYFNMKQYFHDVVVKFIIVAQHLTLEDPFVFSPMQNDLPTGYYEPMKPSSLNLDNAKDKKNGSQNTDIQEEEDEYEPDPDSLILFHNLINQDSDFNDLKFFNLAHVFKKSCDDYFDVLKLAIEFVNQLILERENLLNYAARMMKNNITELLLRGEEGYGSYDGGETAEKSDTNAVYADSDTKDNDEWRDSQVKLPRYLQREYDSELIWGSNNRIKGGSKHALISYLTDNEKKDLFFDITFLITFRSIFTTTEFLSYLISQYNLDPPEDLCFEEYNEWVTKKLIPVKCRVVEIMTTFFKQYWFLGYDEPDLATLNLDYFAQVAIKENITGSVELLKEVNQKFKHGNIQEATAPMKTLDQQICQDHYSGTLYSTTESILAVDPVLFATQLTILEHEIYCEITIFDCLQKIWKNKYTKSYGASPGLNEFISFANKLTNFISYSVVKEADKSKRAKLLSHFIFIAEYCRKFNNFSSMTAIISALYSSPIYRLEKTWQAVIPQTRDLLQSLNKLMDPKKNFINYRNELKSLHSAPCVPFFGVYLSDLTFTDSGNPDYLVLEHGLKGVHDEKKYINFNKRSRLVDILQEIIYFKKTHYDFTKDRTVIECISNSLENIPHIEKQYQLSLIIEPKPRKKVVPNSNSNNKSQEKSRDDQTDEGKTSTKKDRFPKFQLHKTKKKAPKVSK
B5: Pin3 (protein, UniProt Q06449 2-215, looked up)
[PSI+] inducibility protein 3: SASLINRSLTNIRTELDFLKGSNVISNDVYDQINKSLPAKWDPANAPRNASPASLEYVEALYQFDPQQDGDLGLKPGDKVQLLEKLSPEWYKGSCNGRTGIFPANYVKPAFSGSNGPSNLPPPPQYKAQELQQIPTQNSAASSYQQQPFPPPSTNYYQQPQQQPQQAPPPQQQQQQQQHQSSHSHLKSFGSKLGNAAIFGAGASIGSDIVNNIF
B6: Myo5 (protein, UniProt Q04439 1-1219, looked up)
Myosin-5: MAILKRGARKKVHQEPAKRSANIKKATFDSSKKKEVGVSDLTLLSKISDEAINENLKKRFLNATIYTYIGHVLISVNPFRDLGIYTDAVMNEYKGKNRLEVPPHVFAIAESMYYNMKSYNENQCVIISGESGAGKTEAAKRIMQYIAAASSTHTESIGKIKDMVLATNPLLESFGCAKTLRNNNSSRHGKYLEIKFNNQFEPCAGNITNYLLEKQRVVSQIKNERNFHIFYQFTKGASDAYRQTFGVQKPEQYVYTAAAGCISAETIDDLQDYQETLKAMRVIGLGQEEQDQIFRMLAAILWIGNVSFIENEEGNAQVRDTSVTDFVAYLLQIDSQLLIKSLVERIMETNHGMKRGSVYHVPLNIVQADAVRDALAKAIYNNLFDWIVSRVNKSLQAFPGAEKSIGILDIYGFEIFEHNSFEQICINYVNEKLQQIFIQLTLKSEQETYEREKIQWTPIKYFDNKVVCDLIEARRPPGIFAAMNDSVATAHADSNAADQAFAQRLNLFTTNPHFDLRSNKFVIKHYAGDVTYDIDGITDKNKDQLQKDLVELIGTTTNTFLATIFPDTVDRESKRRPPTAGDKIIKSANDLVETLSKAQPSYIRTIKPNETKSPNDYDDRQVLHQIKYLGLQENVRIRRAGFAYRQVFEKFVERFYLLSPHCSYAGDYTWQGDTLDAVKYILQDSSIPQQEYQLGVTSVFIKTPETLFALEHMRDRYWHNMAARIQRAWRRFLQRRIDAATKIQRTIRERKEGNKYEKLRDYGTKVLGGRKERRSMSLLGYRAFMGDYLSCNESKSKGAYIKRQVSIKEKVIFSIHGEALHTKFGRSAQRLKKTFLLTPTTLYIVGQTLVQNAMTYTQDYKIDVRNIQAVSLTNLQDDWVAIKLASSGQPDPLINTYFKTELITHLKRLNDKIQIKIGSAIEYQKKPGKLHSVKCQINESAPKYGDIYKSSTISVRRGNPPNSQVHKKPRKKSSISSGYHASSSQATRRPVSIAAAQHVPTAPASRHSKKPAPPPPGMQNKAATRRSVPNPASTLTASQSNARPSPPTAATRATPAATPAAAAMGSGRQANIPPPPPPPPPSSKPKEPMFEAAYDFPGSGSPSELPLKKGDVIYITREEPSGWSLGKLLDGSKEGWVPTAYMKPHSGNNNIPTPPQNRDVPKPVLNSVQHDNTSANVIPAAAQASLGDGLANALAARANKMRLESDDEEANEDEEEDDW
B7: Ysc84 (protein, UniProt P32793 1-468, looked up)
Protein YSC84: MGINNPIPRSLKSETKKAAKVLRSFVKPNQVFGADQVIPPYVLKRAKGLAIITVLKAGFLFSGRAGSGVIVARLKDGTWSAPSAIAMAGAGAGGMVGVELTDFVFILNSEEAVRSFSEFGTITLGGNVSVSAGPLGRSAEAAASASTGGVSAVFAYSKSKGLFAGVSVEGSAILERREANRKFYGDNCTSKMILSGRVKVPPAADPLLRILESRAFNFTRHDHDDNASGDDFYDDGQYSDNTSHYYDDIPDSFDSTDESSTRPNTRSSRRRGMSLGSRSRYDDDYDDDGYGRGRGYGDFDSEDEDYDYGRSPNRNSSRNRGPQIDRGTKPRANTRWEDDLYDRDTEYSRPNHSGRDYDNTRGNRRGYGRERGYSLGHGPTHPSNMSNVDDLSHKMSKTGLGNESTATNSATPTAVALYNFAGEQPGDLAFKKGDVITILKKSDSQNDWWTGRTNGKEGIFPANYVRVS

One test deals with Abp1 PPIs. The test can be described thus: DHFR-PCA of Abp1 SH3-swapped baits (Fig. 2B-D, S2C, S2F). The test is classed as cell-based, Saccharomyces cerevisiae. The conditions noted are these: number of interactions of Abp1 carrying the named SH3; sheet FigS2A-B. The method in brief: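 Yeast DHFR-PCA in which Abp1 baits, carrying their SH3 replaced by CRISPR–Cas9 with one of 27 yeast SH3s or human CTTN, HCLS1 or DBNL SH3s, were mated against 575 SH3-associated DHFR F[3] preys plus 40 negative controls. Four tests were run per PPI. Diploids were selected twice (48 h, 30 °C), then grown 4 days on PCA selection media.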
In the case of B1, the “Interactions in Abp1” value is reported as 91.
The same measure, in the same setting: the result for B2 reads 81; that for B3, 107; that for B4, 10.
Turning to B5, the “Interactions in Abp1” value came to 99.
The same measure, in the same setting: under B6 stands 100.
Still for that read-out and setting: under B7 stands 108.

For another test, the system named is Abp1 (1xFLAG). The test can be described thus: Western blot expression level of Abp1 SH3-swapped baits (Fig. S2A-B). The test is classed as cell-based, Saccharomyces cerevisiae. The arrangement: Flag (2 bands): unit not given here. The conditions noted are these: Flag signal relative to Abp1 WT (Abp1-1 to Abp1-4 = 1); sheet FigS2A-B. As to the method:
Precultures of yeast cells expressing baits fused with the DHFR F[1,2]-FLAG were grown overnight at 30 °C with agitation in synthetic complete medium. The next day, cells were expanded in synthetic complete medium to reach their exponential phase (OD600 of around 1.0), pelleted, and frozen at −80 °C. The equivalent of fifty OD600 of cells was resuspended in ice-cold yeast lysis buffer (10 mM Tris-HCl pH 7.4, 150 mM NaCl, 0.5 mM EDTA (Millipore Sigma), 1% Triton X-100 (Millipore Sigma), and one cOmplete Mini Protease Inhibitor Cocktail (Millipore Sigma) per 10 mL) with […] glass beads (Millipore Sigma) and disrupted at 4 °C by 10 cycles of 2 min vortexing and 2 min cooldown. The equivalent of […] of lysed cells was used for the immunoprecipitation of the bait proteins using FLAG-M2 agarose beads (Millipore Sigma). The beads were incubated with the cell lysates for 120 min at 4 °C with a slow rotation, followed by three washes with the yeast lysis buffer.
Protein extracts and affinity-purified baits from yeast and human lysed cells were migrated on 10% polyacrylamide gels. The separated proteins were then transferred to nitrocellulose membranes. Validation of correct protein loading was done with ponceau staining of the membranes. Before the primary antibody incubations, membranes were blocked in 5% milk. Protein signals were detected on an Amersham Imager 600RGB (GE Healthcare) following the incubation of the membranes with the appropriate HRP-conjugated secondary antibodies and the Clarity Western ECL Substrate (Bio-Rad). The antibodies used in this study are M2-HRP (A8592, Sigma, 1/50,000), rabbit anti-FLAG (F7425, Sigma, 1/1000), PAK (SC-881, Santa Cruz, 1/200), p130cas/BCAR1 (SC-860, Santa Cruz, 1/200), actin (Cell Signaling Technology, 1/2000), anti-mouse HRP (Cell Signaling Technology, 1/10,000) and anti-rabbit HRP (Cell Signaling Technology, 1/10,000). The quantification of the WB signals was performed with the Amersham Imager 600 analysis software (GE Healthcare).
B1: the “Ratio Swap/WT Flag” value is on record as 0.9802.
B2: the “Ratio Swap/WT Flag” value came out at 0.6541.
As for B3, the “Ratio Swap/WT Flag” value came out at 0.537.
Turning to B4, the “Ratio Swap/WT Flag” value came to 0.3589.
On the same count and under the same terms, the result for B5 reads 0.2499; that for B6, 0.7689.
As to B7, the “Ratio Swap/WT Flag” value is listed as 0.8764.

The test is the same for the next values; noted with them: Western blot Flag signal (2 bands), Abp1 WT, SH3-deleted or SH3-swapped; sheet FigS2A-B.
In the case of B1, the “Flag (2 bands)” value is 104696.
On to B2, for which the “Flag (2 bands)” value was found to be 151709.
With B3, the “Flag (2 bands)” value was 57357.
Consider B4, for which the “Flag (2 bands)” value was determined as 83248.
As for B5, the “Flag (2 bands)” value is recorded as 57952.
Turning to B6, the “Flag (2 bands)” value worked out at 82124.
Regarding B7, the “Flag (2 bands)” value is given as 203262.
